Holding throughout (type): physicochemical
Series [1] in a line: Density of final solution. The following applies: filtered 4 mg/mL solution. On the procedure: (§1) The bulk solution appearance, pH, density and BT5528 assay/related substances were recorded. Additional samples were subjected to three freeze (−20° C.)/thaw cycles, assessing appearance, pH, UPLC and sub-visible particulates (MFI) after each cycle.
The pH of the solution was measured and adjusted to target (pH 6.8-7.2). The pH was 7.79 pH after the addition of API and was adjusted to 7.19 pH using 0.1 M HCl solution. The solution was transferred to a 20 mL volumetric flask and make to final volume with WFI. The solution was filtered through a single 0.22 μm, PES membrane syringe filter. The final solution was a clear, colourless solution which was free from any visible particulates. The density of the final solution was measured, 1.025 g/cm^3. A pre- and post-filtration sample was passed to analytical for HPLC analysis. The remaining bulk solution was filled in 2 mL volumes into 2 mL glass vials and subjected to three, freeze/thaw cycles.

A short description of series [2]: pH of bulk or reconstituted solution. The following applies: 4 mg/mL bulk solution. As to the method: as §1
(§2) The lyophilized product was placed on stability and tested for 1 month (according to Table 1-9) at accelerated storage of 25° C./60% RH. The lyophilized product was assessed by means of appearance, moisture content, and assay and related substances by UPLC. The reconstituted product was assessed on the basis of reconstitution time, solution appearance, pH and sub-visible particulates (T=0 only).

Series [3] in a line: Reconstitution time of lyophilized product. The note with it: 21.2 mg/vial reconstituted with 5.3 mL 0.02 M HCl, versus 0.01 M HCl. As to the method:
as §2
Formulations 1 to 4 had significant adsorptive properties with the drug product adsorbing onto the glass vial above and in the reconstituted solution. Formulation 5 (2 mg/mL BT5528) produced the best results with drug product adsorbing only slightly above the solution and no adsorption noted within the solution. Variability in reconstitution time derives from the analytical procedure deviating throughout the testing of formulation 1. This occurred due to the severe adsorptive nature of formulation 1. For the 4 mg/mL solution agitation occurred immediately after addition of reconstitution medium producing a severe adsorptive spread above the solution. A settle period before agitation was performed for the 2 mg/mL producing a better reconstitution performance although adsorption was still noted. For the 1.3 mg/mL solution a settle period of 5 minutes was performed to minimize the agitation required. […]

The nature of series [4]: Appearance of solution (bulk or reconstituted), visual. The following applies: 4 mg/mL bulk solution. As to the method: as §1, §2

In the case of “BT5528: Bicycle toxin conjugate; TATA scaffold; peptide ligand (β-Ala)-Sar10-A(HArg)D-Ci(HyP)LVNPLCiiLHP(D-Asp)W(HArg)Ciii (SEQ ID NO: 1)”, the “density of the final solution” value in series [1] was found to be 1.025 g/mL. Moreover, the pH is 7.3 in series [2] (Freeze Thaw Cycle 1), 7.3 in series [2] (Freeze Thaw Cycle 2), 7.3 in series [2] (Freeze Thaw Cycle 3) and 7.2 in series [2] (Pre Filtration). Also, the “reconstitution time and appearance of the reconstituted product (oily droplet formation)” value in series [3] is given as “improved”. Also, the Appearance entry is reported as “Clear, colourless solution free” in series [4] (Freeze Thaw Cycle 1 (−20° C.)); “Clear, colourless solution free” in series [4] (Freeze Thaw Cycle 2); “Clear, colourless solution free” in series [4] (Freeze Thaw Cycle 3); “Clear, colourless solution free” in series [4] (Post Filtration); “Clear, colourless solution free” in series [4] (Pre Filtration).

(Values after patent US20260248917A1, “BICYCLIC PEPTIDE LIGANDS SPECIFIC FOR EPHA2 AND USES THEREOF” (BicycleTx Limited, priority 2019, published 2026).)
